These results are taken from patent publication US20200148774A1 (Genentech, published 2020).

Where a chain is given by its changes, count along the chain named. Read-outs that look alike come from different tables or passages of the source.

Assay [1] has as its target T1, human CLL-1 on cells (endogenous on HL-60, EOL-1 and other AML cell lines and CD14+ monocytes); recombinant on … (human, UniProt Q5QGZ9 1-265).
T1 construct: also called 293AD/huCLL-1; tumor-derived CLL-1
T1 sequence: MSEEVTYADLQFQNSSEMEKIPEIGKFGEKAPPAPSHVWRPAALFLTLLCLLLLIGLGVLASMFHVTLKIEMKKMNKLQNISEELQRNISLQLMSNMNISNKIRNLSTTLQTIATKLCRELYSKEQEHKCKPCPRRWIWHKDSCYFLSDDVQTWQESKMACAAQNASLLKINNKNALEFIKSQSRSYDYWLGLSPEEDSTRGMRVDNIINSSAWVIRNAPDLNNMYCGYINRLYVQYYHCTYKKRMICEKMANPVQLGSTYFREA
As to the kind of experiment: Scatchard, EOL-1 cells.

For assay [2], the target named is T1, human CLL-1 on cells (endogenous on …). As to the kind of experiment: Scatchard, 293AD/huCLL-1 cells. The procedure: (§1) Competition assay mixtures of 50 μL volume containing a fixed concentration of [1¹²⁵] labeled antibody and decreasing concentrations of serially diluted, unlabeled antibody were placed into 96-well plates. HEK293AD cells stably expressing recombinant hu or cynoCLL-1 or HL-60 tumor cells expressing endogenous CLL-1 were cultured in growth media at 37° C. in 5% CO₂. Cells were detached from the flask using Sigma Cell Dissociation Solution and were washed with binding buffer, which consisted of Dulbecco's Modified Eagle Medium (DMEM) with 1% bovine serum albumin (BSA), […] and 0.1% sodium azide. The washed cells were added to the 96 well plates at a density of 100,000 cells in 0.2 mL of binding buffer. […] The final concentration of the unlabeled antibody in the competition assay ranged from 1000 nM through ten 2-fold dilution steps to a 0 nM buffer-only assay. Competition assays were carried out in triplicate. Competition assays were incubated for 2 hours at room temperature. After the 2-hour incubation, the competition assays were transferred to a Millipore Multiscreen filter plate (Billerica, Mass.) and washed 4 times with binding buffer to separate the free from bound [I¹²⁵] labeled antibody. The filters were counted on a Wallac Wizard 1470 gamma counter (PerkinElmer Life and Analytical Sciences Inc.; Wellesley, Mass.). The binding data was evaluated using NewLigand software (Genentech), which uses the fitting algorithm of Munson and Robard to determine the binding affinity of the antibody (Munson and Robard 1980).

Assay [3] has as its target T2, cynomolgus CLL-1 on cells (recombinant on HEK293AD cells) (cynomolgus monkey).
T2 construct: also called 293AD/cynoCLL-1; 293AD/cynoCLL1
T2 chain: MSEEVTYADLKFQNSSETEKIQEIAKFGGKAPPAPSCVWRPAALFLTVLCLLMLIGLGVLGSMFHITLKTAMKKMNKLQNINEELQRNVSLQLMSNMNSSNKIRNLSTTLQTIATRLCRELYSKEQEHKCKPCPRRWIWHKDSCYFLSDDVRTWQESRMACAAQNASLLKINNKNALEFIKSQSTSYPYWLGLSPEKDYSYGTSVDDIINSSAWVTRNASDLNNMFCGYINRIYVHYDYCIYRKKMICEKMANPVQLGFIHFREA
The assay can be described thus: Scatchard, 293AD/cynoCLL1 cells. The procedure: as §1, with “After the 2-hour incubation, the competition assays were transferred to a Millipore Multiscreen filter plate (Billerica, Mass.) and washed 4 times with binding buffer to separate the free from bound [I¹²⁵] labeled antibody.” left out

Assay [4] concerns the target T1, human CLL-1 on cells (endogenous on …). As to the kind of experiment: Scatchard, HL-60 cells. The procedure: as §1, with “After the 2-hour incubation, the competition assays were transferred to a Millipore Multiscreen filter plate (Billerica, Mass.) and washed 4 times with binding buffer to separate the free from bound [I¹²⁵] labeled antibody.” left out
For assay [5], the target named is T3, recombinant cynomolgus CLL-1 extracellular domain (ECD, amino acids 65-265) fused to an N-terminal Flag (cynomolgus monkey).
T3 construct: Construct stated for the immunogen; also called CynoCLL-1 Flag; cynoCLL-1
T3 chain: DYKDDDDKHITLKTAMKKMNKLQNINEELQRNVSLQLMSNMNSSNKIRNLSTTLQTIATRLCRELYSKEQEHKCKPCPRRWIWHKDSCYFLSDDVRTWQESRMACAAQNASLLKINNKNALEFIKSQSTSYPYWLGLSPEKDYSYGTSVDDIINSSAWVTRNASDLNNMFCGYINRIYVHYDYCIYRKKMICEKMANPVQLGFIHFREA
As to the kind of experiment: SPR (Biacore T200), IgG captured by anti-human Fc, CLL-1 as analyte.

In assay [6] the target is T4, recombinant human CLL-1 extracellular domain (ECD, amino acids 65-265) fused to an N-terminal Flag (human, UniProt Q5QGZ9 65-265).
T4 construct: The construct and the K244Q SNP are stated for the immunogen; they are not written as a piece; also called huCLL-1-Flag; huCLL-1
T4 chain: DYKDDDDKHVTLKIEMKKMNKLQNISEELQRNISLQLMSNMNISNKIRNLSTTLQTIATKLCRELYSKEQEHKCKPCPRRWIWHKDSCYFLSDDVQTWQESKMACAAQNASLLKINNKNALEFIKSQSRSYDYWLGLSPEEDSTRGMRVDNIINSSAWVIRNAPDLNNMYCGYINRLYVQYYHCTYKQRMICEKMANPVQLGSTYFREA
The assay is described as above.

Assay [7] concerns the target T2, cynomolgus CLL-1 on cells (recombinant …). The assay can be described thus: FACS, stable cell line expressing recombinant cyno CLL-1.
For assay [8], the target named is T1, human CLL-1 on cells (endogenous on …). The assay can be described thus: FACS, stable cell line expressing recombinant hu CLL-1 and AML tumor cell lines.
For assay [9], the target named is T3, recombinant cynomolgus CLL-1 …. The assay can be described thus: SPR (Biacore T200), IgG captured by anti-human Fc, CLL-1 as analyte.
In assay [10] the target is T4, recombinant human CLL-1 extracellular …. The description is as above.
Assay [11] shares this target. The assay can be described thus: SPR (Biacore T200), IgG captured by anti-human Fc, human CLL-1 as analyte. The method, then:
The binding affinity of the antibodies in this section was determined by BIAcore™ T200 Format. Briefly, BIAcore™ research grade CM5 chips were activated with 1-ethyl-3-(3-dimethylaminopropyl) carbodiimide (EDC) and N-hydroxysuccinimide (NHS) reagents according to the supplier's instructions. Goat anti-human Fc IgGs were coupled to the chips to achieve approximately 10,000 response units (RU) in each flow cell. Unreacted coupling groups were blocked with 1M ethanolamine. For kinetics measurements, antibodies were captured to achieve approximately 300 RU. Three-fold serial dilutions of human CLL-1 was injected in HBS-P buffer (0.01M HEPES pH7.4, 0.15M NaCl, 0.005% surfactant P20) at 25° C. with a flow rate of 30 μl/min. Association rates (kon) and dissociation rates (koff) were calculated using a 1:1 Langmuir binding model (BIAcore™ T200 Evaluation Software version 2.0). The equilibrium dissociation constant (Kd) was calculated as the ratio koff/kon.

The target in a further assay is T5, cynoCD3εγ (cynomolgus monkey, UniProt Q95LI5 22-117; Q95LI7 23-113).
T5 construct: also called cynomolgus CD3εγ
T5 sequence (looked up) 1: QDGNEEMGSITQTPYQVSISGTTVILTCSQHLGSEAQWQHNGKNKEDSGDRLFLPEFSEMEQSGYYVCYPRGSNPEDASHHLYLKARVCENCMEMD
T5 sequence (looked up) 2: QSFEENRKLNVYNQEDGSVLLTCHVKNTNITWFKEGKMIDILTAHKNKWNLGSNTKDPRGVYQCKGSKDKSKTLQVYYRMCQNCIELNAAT
As to the kind of experiment: SPR (Biacore).

The next assay concerns the target T6, hCD3εγ (human, UniProt P07766 23-126; P09693 23-116).
T6 construct: also called human CD3εγ
As to the kind of experiment: SPR (Biacore).

T6 sequence (P07766 23-126, chain 1 of 2): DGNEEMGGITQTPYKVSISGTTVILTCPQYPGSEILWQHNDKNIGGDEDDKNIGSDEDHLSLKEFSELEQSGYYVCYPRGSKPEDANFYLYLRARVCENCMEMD
T6 sequence (P09693 23-116, chain 2 of 2): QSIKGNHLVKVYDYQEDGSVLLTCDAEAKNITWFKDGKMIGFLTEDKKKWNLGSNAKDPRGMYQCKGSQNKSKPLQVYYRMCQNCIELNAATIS

B1: 6E7.L4H1eA54 (antibody, V domains shown)
VH: EVQLVQSGAEVKKPGASVKVSCKASGYSFTDYYMHWVRQAPGQGLEWIGRINPYAGAAFYSQNFKDRVTLTVDTSTSTAYLELSSLRSEDTAVYYCAIERGADLEGYAMDYWGQGTLVTVSS
VL: DIQMTQSPSSLSASVGDRVTITCRASQSVSTSSYNYMHWYQQKPGKPPKLLIKYASNLESGVPSRFSGSGSGTDFTLTISSLQPEDFATYYCQHSWEIPLTFGQGTKVEIK
notes: humanized IgG; also called 6E7.L4H1eN54A; h6E7A
As to B1, the Kd turned out to be 0.32 nM in assay [1]; 0.89 nM in assay [2]; 0.9 nM in assay [3]; 0.64 nM in assay [4]; 3.14 nM in [5]; 3.08 nM in [6].

B2: m20B1 (antibody, V domains shown)
VH: EVQLQQSGPELVKPGALVKISCKASGYTFTSYDINWLKQRPGQGLEWIGWIYPGDGTTEYNERFKGKATLTADKSSSTAYLQLSSLTSENSAVYFCARSYDYDYAMDYWGQGTSVTVSS
VL: DIVLTQSPAIMSASPGEKVTMTCSASSSISYMYWYQQKPGTSPKRWIYDTSKLASGVPARFSGSGSGTSYSLTISSMEAEDAATYYCHQRSSWTFGGGTKLEIK
notes: murine monoclonal antibody; also called murine 20B1
As to B2, the binding result in [7] and in [8] was “binds” throughout.

B3: 21C9.L2H3 (antibody, V domains shown)
VH: EVQLVQSGAEVKKPGASVKVSCKASGYTFTDYYLDWVRQAPGQGLEWIGRVNPYNGGTIYNQKFKGRVTLTRDTSTSTAYLELSSLRSEDTAVYYCARDHYRYDPLLDYWGQGTLVTVSS
VL: DIQMTQSPSSLSASVGDRVTITCKASQDVSTAVAWFQQKPGKAPKLLIYSPSYRYTGVPSRFSGSGSGTDFTLTISSLQPEDFATYYCQQLYSTPYTFGQGTKVEIK
notes: humanized, assessed in the form of an IgG; also called humanized 21C9.L2H3; h21C9
Regarding B3, the Kd in assay [1] was determined as 0.74 nM; in [9] it was 9.47 nM; in [10], 11.7 nM; in [11], 9.79 nM; in assay [2] it was 3.6 nM; in assay [3] it was 2.4 nM. Further, the Kd in assay [5] stood at 9.3 nM; in [6], 15.1 nM.

B4: 38E4v1 (antibody, V domains shown)
VH: EVQLVQSGAEVKKPGASVKVSCKASGFTFTSYYIHWVRQAPGQGLEWIGWIYPENDNTKYNEKFKDRVTITADTSTSTAYLELSSLRSEDTAVYYCARDGYSRYYFDYWGQGTLVTVSS
VL: DIVMTQSPDSLAVSLGERATINCKSSQSLLNSRTRKNYLAWYQQKPGQSPKLLIYWTSTRKSGVPDRFSGSGSGTDFTLTISSLQAEDVAVYYCKQSFILRTFGQGTKVEIK
notes: also called h38E4v1
With B4, the Kd in the assay with cynoCD3εγ is 0.7 nM; with hCD3εγ it was 0.5 nM.

B5: 40G5c (antibody, V domains shown)
VH: B4 VH with F27Y, S31N, E54G, N55D, D56G, D66G, V68A, I70L, G100S, R103N
VL: B4 VL with S49P, T57A, K61E, K95T
notes: also called h40G5c
As to B5, the equilibrium dissociation constant (Kd) was determined as 14 nM with cynoCD3εγ and 12 nM with hCD3εγ.

B6: m28H12 (antibody, V domains shown)
VH: QVQLQQSGAELVKPGASVKLSCTASGFNIKDTYMHWVKQRPEQGLEWIGRIDPANGDTDYDPKFQGKATVTADTSSNTAYLQLSSLTSEDTAVYYCTISGPPYYVMDYWGQGTSVTVSS
VL: DIQMTQSPASLAVSLGQRATISCRASQSVSSSSYSYMHWYQQKPGQPPKLLIKYASNLESGVPARFSGRGSGTDFTLNIHPVEEEDTATYYCQHSWEIPYTFGGGTRLEIK
notes: murine monoclonal antibody; also called murine 28H12
On to B6, for which the binding result in assay [7] and in assay [8] was “binds” throughout.
